Assay results as given in patent publication US20210355235A1 (YALE UNIVERSITY, published 2021).

What follows are binders tested against T1, human renalase-1 (Homo sapiens, UniProt Q5VYX0 18-342, limits assumed) (assay: SPR, Biacore T100; biotinylated antibody captured on streptavidin chip, renalase-1 in solution).
T1 construct: Whole entry named for renalase-1 (Glu at position 37); also called R1; HuRenalase-1
Procedure: Binding studies were performed using a Biacore T100. Binding studies were performed at 25° C. using 25 mM Tris pH 8, 150 mM NaCl, 1 mM EDTA, 10% glycerol, 0.005% Tween-20 and 0.1 mg/mL BSA as the running buffer. The biotinylated antibodies were captured on individual streptavidin sensor chip flow cells as shown below. Because the study took two sensor chips, the analysis of two of the mAbs on the second sensor chip was repeated to gather more data. Renalase-1 was tested at 50 nM as the highest concentration in a three-fold dilution series. Each of 5 concentrations was tested in duplicate. Bound complexes were regenerated with a short pulse of 1/1000 phosphoric acid.

T1 sequence (Q5VYX0 18-342 limits assumed): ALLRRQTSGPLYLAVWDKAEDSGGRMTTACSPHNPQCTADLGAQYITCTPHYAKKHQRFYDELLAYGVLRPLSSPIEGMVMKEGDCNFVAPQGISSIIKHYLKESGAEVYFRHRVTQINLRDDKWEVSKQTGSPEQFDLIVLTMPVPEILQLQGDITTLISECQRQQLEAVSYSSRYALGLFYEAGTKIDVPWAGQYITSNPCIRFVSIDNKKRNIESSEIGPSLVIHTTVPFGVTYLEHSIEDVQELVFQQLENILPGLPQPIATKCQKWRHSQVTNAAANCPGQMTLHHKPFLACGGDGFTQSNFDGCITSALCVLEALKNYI

Row | Binder | Kd [nM] | koff [s⁻¹] | kon [M⁻¹ s⁻¹]
1 | anti-renalase monoclonal antibody 1D-28-4 (antibody, V domains shown, Rabbit monoclonal IgG raised against peptide 1D (RP-220); also called m28-RNLS; Bio-1D 28-4) VH: QSVEESGGRLVTPGTPLTLTCTVSGFSLSSFAVGWVRQAPGKGLEYIGIISSVGITRYASWAAGRFTISKTSTTVDLKITSPTTEDTATYFCARYGYSGDVNRLDLWGQGTLVTVSS VL: AQVLTQTASPVSAAVGGTVTINCQASQSVYDNNNLAWYQQKPGQPPKQLIYGASTLASGVSSRFKGSGSGTQFTLTISGVQCDDAATYYCLGEFSCSSADCFAFGGGTEVVVKG | 0.316 | 2.04e-05 | 64700
2 | anti-renalase monoclonal antibody 1F-26-1 (antibody, V domains shown, Rabbit monoclonal IgG raised against peptide 1F; Biotinylated in the Biacore study; also called Bio-1F 26-1) VH: QSVKESEGGLFKPTDTLTLTCTVSGFSLSSYGVTWVRQAPGNGLEWIGLIGDRGTTFYASWAKSRSTITRNTNLNTVTLKMTRLTAADTATYFCARGSGYGARIWGPGTLVTVSS VL: AQVLTQTPSPVSAAVGGTVTINCQSSQSVYKNNYLAWYQQKPGQPPKLLIYETSKLASGVPPRFSGSGSGTQFTLTISSVQCDDAATYYCQGGYSGVDFMAFGGGTEVVVKG | 2.25 | 0.000102 | 45300
3 | anti-renalase monoclonal antibody 1F-42-7 (antibody, V domains shown, Rabbit monoclonal IgG raised against peptide 1F; Biotinylated in the Biacore study; also called Bio-1F 42-7) VH: QSVKESEGGLFKPTDTLTLTCTVSGFSLTTYGVTWVRQAPGNGLEWIGLIGDRGTTYYASWVNGRSTITRNTNLNTVTLKMTRLTAADTATYFCARGSGYGARIWGPGTLVTVAS VL: AQVLTQTPSPMSAALGGTVTINCQSSQTVYNNNYLSWYQQKPGQPPKLLIYETSKLSSGVPPRFSGSGSGTQFTLTISSVQCDDAATYYCQGGYSGVDFMAFGGGTEVVVKG | 2.41 | 9.47e-05 | 39300
4 | anti-renalase monoclonal antibody 1D-37-10 (antibody, V domains shown, Rabbit monoclonal IgG raised against peptide 1D (RP-220); Biotinylated in the Biacore study; also called m37-RNLS; Bio-1D 37-10) VH: QSVEESGGRLVTPGGSLTLTCTVSGFSLSDYAIIWVRQAPGKGLEYIAIIGSSGDTFYATWAKGRFTISKTSTTVDLKMTSLTAADTATYFCAPRYAGTTDYHDAFDPWGPGTLVTVSS VL: EVVMTQTPASMEAPMGGTVTIKCQASQNIYNYLSWYQQKPGQPPKLLVYKASTLTSGVPSRFKGSGSGTQFTLTISDLECADAATYYCQINYSIYNHYNIIFGGGTEVVVKG | 2.67 | 4.67e-05 | 17500
